In paper PMC3045599 one finds stoichiometry N data, which are given here for one substance.

Usually stoichiometry N stands for the number of molecules, sites or subunits per partner or assembly.

The assay has as its target NrdA-a/NrdA-b heterodimer of phage Aeh1, wild type (phage Aeh1). The assay can be described thus: GEMMA.

“NrdA-a/NrdA-b heterodimer of phage Aeh1, wild type (complex)” had a stoichiometry N of 2.
